Patent US20020076693A1, “Novel cell surface receptor for HIV retroviruses, therapeutic and diagnostic uses” (priority 1997, published 2002)
pEC50, pIC50: −log10 of the molar value. Read-outs that look alike come from different tables or passages of the source.

Tests used:
P95/nucleolin (human) [1] = molecular target: P95/nucleolin (human) (UniProt P19338); assay: cell-based or functional assay
[2] = molecular target: purified preparation of the V3 loop-BPs (P95/nucleolin, P40/PHAP II, P30/PHAP I) (human) (UniProt P19338); assay: inhibition of gp120 binding to the V3 loop-BPs; competitor gp120
P95/nucleolin (human) [3] = molecular target: P95/nucleolin (human) (UniProt P19338); assay: FACS on CEM cells with biotin-labeled construct; target printed as TASP-ligand
[4] = molecular target: purified preparation of the V3 loop-BPs (P95/nucleolin, P40/PHAP II, P30/PHAP I) (human) (UniProt P19338); assay: BIAcore, V3-BPs; row shifted one column to the left
[5] = molecular target: purified preparation of the V3 loop-BPs (P95/nucleolin, P40/PHAP II, P30/PHAP I) (human) (UniProt P19338); assay: BIAcore, V3 loop-BPs immobilized on CM5
P95/nucleolin (human) [6] = molecular target: P95/nucleolin (human) (UniProt P19338); assay: competition: 50 µM unlabeled 5[KPR]-TASP against 5 µM biotin-labeled 5[Kψ(CH2N)PR]-TASP on CEM cells
P95/nucleolin (human) [7] = molecular target: P95/nucleolin (human) (UniProt P19338); assay: FACS on MOLT4 cells after pronase E; target TASP-Ligand [sic]
P95/nucleolin (human) [8] = molecular target: P95/nucleolin (human) (UniProt P19338); assay: FACS on MOLT4 cells after proteinase K; target TASP-Ligand [sic]
P95/nucleolin (human) [9] = molecular target: P95/nucleolin (human) (UniProt P19338); assay: FACS on MOLT4 cells, no protease; target TASP-Ligand [sic]
P30/PHAP I (human) = P30/PHAP I (human) (UniProt P39687); assay: saturation of the binding sites, method not stated
P40/PHAP II (human) = P40/PHAP II (human) (UniProt Q01105); assay: saturation of the binding sites, method not stated
P95/nucleolin (human) [10] = molecular target: P95/nucleolin (human) (UniProt P19338); assay: saturation of the binding sites, method not stated
P95/nucleolin (human) [11] = molecular target: P95/nucleolin (human) (UniProt P19338); assay: FACS on MOLT4 cells after trypsin; target TASP-Ligand [sic]
[12] = molecular target: purified preparation of the V3 loop-BPs (P95/nucleolin, P40/PHAP II, P30/PHAP I) (human) (UniProt P19338); assay: BIAcore, V3-BPs
[13] = molecular target: CD4 (cellular, CEM and MOLT4 cells) (human) (UniProt P01730); assay: FACS on MOLT4 cells after trypsin
[14] = molecular target: CD4 (cellular, CEM and MOLT4 cells) (human) (UniProt P01730); assay: FACS on MOLT4 cells after pronase E
[15] = molecular target: CD4 (cellular, CEM and MOLT4 cells) (human) (UniProt P01730); assay: FACS on MOLT4 cells, no protease
[16] = molecular target: CD4 (cellular, CEM and MOLT4 cells) (human) (UniProt P01730); assay: cell-based or functional assay
[17] = molecular target: purified preparation of the V3 loop-BPs (P95/nucleolin, P40/PHAP II, P30/PHAP I) (human) (UniProt P19338)
[18] = molecular target: CD4 (cellular, CEM and MOLT4 cells) (human) (UniProt P01730); assay: FACS on MOLT4 cells after proteinase K
[19] = molecular target: CD26 (on MOLT4 cells) (human) (UniProt P27487); assay: FACS on MOLT4 cells after trypsin
[20] = molecular target: CD26 (on MOLT4 cells) (human) (UniProt P27487); assay: FACS on MOLT4 cells after pronase E
[21] = molecular target: CD26 (on MOLT4 cells) (human) (UniProt P27487); assay: FACS on MOLT4 cells, no protease
[22] = molecular target: CD26 (on MOLT4 cells) (human) (UniProt P27487); assay: FACS on MOLT4 cells after proteinase K
[23] = molecular target: purified preparation of the V3 loop-BPs (P95/nucleolin, P40/PHAP II, P30/PHAP I) (human) (UniProt P19338); assay: BIAcore, V3 loop-BPs
[24] = molecular target: recombinant gp120 of HIV-1 Lai (IIIB) (HIV-1 Lai (IIIB)) (UniProt P03377); assay: cell-based or functional assay
[25] = molecular target: purified preparation of the V3 loop-BPs (P95/nucleolin, P40/PHAP II, P30/PHAP I) (human) (UniProt P19338); remark: listed apart in the source
recombinant soluble CD4 = recombinant soluble CD4 (UniProt P01730); assay: BIAcore, soluble CD4; row shifted one column to the left
[26] = molecular target: purified preparation of the V3 loop-BPs (P95/nucleolin, P40/PHAP II, P30/PHAP I) (human) (UniProt P19338); assay: BIAcore, purified V3-BPs

Chain of P95/nucleolin (human) (P19338 2-710 limits assumed): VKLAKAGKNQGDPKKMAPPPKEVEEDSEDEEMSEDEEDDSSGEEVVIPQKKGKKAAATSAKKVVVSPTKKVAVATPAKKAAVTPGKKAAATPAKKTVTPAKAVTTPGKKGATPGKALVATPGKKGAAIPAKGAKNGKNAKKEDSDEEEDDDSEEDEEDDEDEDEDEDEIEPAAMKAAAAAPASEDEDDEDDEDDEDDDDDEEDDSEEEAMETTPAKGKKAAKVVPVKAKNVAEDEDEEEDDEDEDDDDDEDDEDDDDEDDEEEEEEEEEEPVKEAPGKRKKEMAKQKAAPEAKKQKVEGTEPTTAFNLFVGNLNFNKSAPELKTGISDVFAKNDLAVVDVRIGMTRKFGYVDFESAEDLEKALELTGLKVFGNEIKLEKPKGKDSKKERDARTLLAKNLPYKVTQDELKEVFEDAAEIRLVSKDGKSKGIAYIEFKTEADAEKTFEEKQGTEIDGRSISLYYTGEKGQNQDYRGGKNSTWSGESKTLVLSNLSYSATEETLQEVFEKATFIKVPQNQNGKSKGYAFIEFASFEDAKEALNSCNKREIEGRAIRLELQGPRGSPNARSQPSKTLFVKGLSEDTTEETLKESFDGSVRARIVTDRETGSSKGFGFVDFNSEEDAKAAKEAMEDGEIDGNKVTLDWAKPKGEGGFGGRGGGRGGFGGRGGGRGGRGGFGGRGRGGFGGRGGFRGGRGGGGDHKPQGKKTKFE
Chain of P40/PHAP II (human) (Q01105 other isoform, or with tags, fused parts or gaps limits assumed): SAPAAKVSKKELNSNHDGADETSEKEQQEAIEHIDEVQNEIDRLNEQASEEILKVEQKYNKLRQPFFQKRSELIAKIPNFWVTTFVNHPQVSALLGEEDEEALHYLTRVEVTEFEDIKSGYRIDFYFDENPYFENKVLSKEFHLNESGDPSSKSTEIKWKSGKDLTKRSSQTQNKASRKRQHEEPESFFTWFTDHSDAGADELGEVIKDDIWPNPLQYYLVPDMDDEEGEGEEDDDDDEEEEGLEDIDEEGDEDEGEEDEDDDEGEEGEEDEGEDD

## 5[KPR]-TASP (peptide)
P95/nucleolin (human) [1]
  Inhibition of HIV infection (IC50), HIV-1 in CEM cells, p24 at 4 days: 5000 nM
[2]
  pIC50: 6.52
P95/nucleolin (human) [3]
  pEC50: 5.46
[4]
  Ka: 1.5e+08 M⁻¹
  koff: 0.0024 s⁻¹
  kon: 350000 M⁻¹ s⁻¹
[5]
  Ka: 1.5e+08 M⁻¹
  koff: 0.0024 s⁻¹
  kon: 350000 M⁻¹ s⁻¹
P95/nucleolin (human) [6]
  % of P95 recovery abolished: 40 to 50%

## 5[Kψ(CH2N)PR]-TASP (peptide)
P95/nucleolin (human) [7]
  % positive cells: 8%
P95/nucleolin (human) [8]
  % positive cells: 15%
P95/nucleolin (human) [1]
  IC50 of HIV entry (β-galactosidase), HeLa P4, HIV-1 Lai: 500 nM
  IC50 of HIV entry (β-galactosidase), HeLa P4-C5, HIV-1 Bal: 800 nM
  IC50 of HIV entry (β-galactosidase), HeLa P4-C5, HIV-1 UGO29A: 300 nM
  IC50 of HIV entry (β-galactosidase), HeLa P4-C5, HIV-2 ROD: 400 nM
  Inhibition of HIV infection (IC50), HIV-1 in CEM cells, p24 at 4 days: 500 nM
P95/nucleolin (human) [9]
  % positive cells: 100%
P95/nucleolin (human) [3]
  pEC50: 6.82
P30/PHAP I (human)
  concentration giving 100% saturation of the binding sites: 8 µM
P40/PHAP II (human)
  concentration giving 100% saturation of the binding sites: 4 µM
P95/nucleolin (human) [10]
  concentration giving 100% saturation of the binding sites: 2 µM
P95/nucleolin (human) [11]
  % positive cells: 92%
[5]
  Ka: 9.61e+09 M⁻¹
[12]
  Ka: 9.61e+09 M⁻¹

## 5[Kψ(CH2N)PR]-TASP with dehydroxyproline in place of proline (peptide)
P95/nucleolin (human) [1]
  IC50 of HIV entry (β-galactosidase), HeLa P4, HIV-1 Lai: 100 nM
  IC50 of HIV entry (β-galactosidase), HeLa P4-C5, HIV-1 89.6: 300 nM
  IC50 of HIV entry (β-galactosidase), HeLa P4-C5, HIV-1 Bal: 300 nM
  IC50 of HIV entry (β-galactosidase), HeLa P4-C5, HIV-1 JRCSF: 300 nM
  IC50 of HIV entry (β-galactosidase), HeLa P4-C5, HIV-1 Lai: 100 nM
  IC50 of HIV entry (β-galactosidase), HeLa P4-C5, HIV-2 CBL: 2000 nM
  IC50 of HIV entry (β-galactosidase), HeLa P4-C5, HIV-2 ROD: 200 nM

## mAb OKT4A (antibody)
[13]
  % positive cells: 24%
[14]
  % positive cells: 9%
[15]
  % positive cells: 100%
[16]
  inhibition of binding of HIV-1 particles to CEM cells (p24 in cell lysates): 75%
[17]
  ELISA OD 450 nm: 0.2 OD 450 nm
[18]
  % positive cells: 6%

## mAb Ta1 (antibody)
[19]
  % positive cells: 100%
[20]
  % positive cells: 97%
[21]
  % positive cells: 100%
[22]
  % positive cells: 98%

## nonglycosylated gp120 of HIV-1 SF2 (Env 2-3) (from UniProt P03378 32-509) (ligand)
[4]
  Ka: 1.6e+08 M⁻¹
  koff: 0.0024 s⁻¹
  kon: 380000 M⁻¹ s⁻¹
[5]
  Ka: 1.6e+08 M⁻¹
  koff: 0.0024 s⁻¹
  kon: 380000 M⁻¹ s⁻¹
[23]
  fold reduction of affinity against glycosylated gp120 SF2: 10 fold

## purified preparation of the V3 loop-BPs (P95/nucleolin, P40/PHAP II, P30/PHAP I) (from UniProt P19338 2-710; Q01105 2-277; P39687 1-249)
[24]
  inhibition of HIV-1 Lai infection of CEM cells, multiple cycles, p24 at 5 days, 10 µg/ml: 91%
  inhibition of single cycle HIV-1 infection of CEM cells: > 80%

## recombinant gp120 of HIV-1 Lai (IIIB) (from UniProt P03377 33-516) (ligand)
[25]
  pIC50: 8.52
[4]
  Ka: 2.1e+08 M⁻¹
  koff: 0.0021 s⁻¹
  kon: 440000 M⁻¹ s⁻¹
[5]
  Ka: 2.1e+08 M⁻¹
  koff: 0.0021 s⁻¹
  kon: 440000 M⁻¹ s⁻¹

## recombinant gp120 of HIV-1 Lai (IIIB) (from UniProt P03377 33-516) (ligand; other documents disagree on this pair)
Recombinant soluble CD4
  Ka: 1.08e+09 M⁻¹
  koff: 0.0545 s⁻¹
  kon: 588000 M⁻¹ s⁻¹

## recombinant gp120 of HIV-1 MN (from UniProt P05877 32-513) (ligand)
[4]
  Ka: 4.3e+08 M⁻¹
  koff: 0.00044 s⁻¹
  kon: 190000 M⁻¹ s⁻¹
[5]
  Ka: 4.3e+08 M⁻¹
  koff: 0.00044 s⁻¹
  kon: 190000 M⁻¹ s⁻¹

## recombinant gp120 of HIV-1 SF2 (from UniProt P03378 32-509) (ligand)
[4]
  Ka: 2.32e+09 M⁻¹
  koff: 3e-05 s⁻¹
  kon: 65000 M⁻¹ s⁻¹
[5]
  Ka: 2.32e+09 M⁻¹
  koff: 2.8e-05 s⁻¹
  kon: 65000 M⁻¹ s⁻¹

## synthetic V3 loop peptide of HIV-1 Ba-L
[26]
  Ka: 1.5e+06 M⁻¹

## synthetic V3 loop peptide of HIV-1 Lai
[26]
  Ka: 5.1e+06 M⁻¹
  fold affinity against the V3 loop of the macrophage-tropic isolate: > 3 fold
